# Test results: the DeepSol protein solubility set
# Assay: soluble on expression in E. coli; label from the status in PepcDB or PDB records
row,Sequence,soluble on expression in E. coli
1,MPPMAKNAAVTDVVHLDSDSDSDNGVVGGRESASTIAGAATMAPRETLECRSFWKAGDYFVIPNVVTPTAPAIAELLDNAVDEIQNGATFVKIDKINIVKDNSPALVFQDDGGGMDPAGLRKCMSLGYSSKKSNTTIGQYGNGFKTSTMRLGADAIVFSRSTRGGTSTQSVGILSYTFLRKTGQDDVTVPMIRYVMQIDIDISKERPQPIIYGSPEDWAANLEILLKWSPFSTEDELLQQSVLLIFLFPSSTHQFEDVGTHGTKVIIYNLWLNDEGIYELSFDDDEEVTHTFPQLIYTRRDILPEDIRLRDESVNDGKRLHHKILELRSHISYHLRYSLRAYASMLYLKKFKNFKIIIRGIPVEQFNIADGFRFPEIIKYKPHTATTEQASTEIKIGFVKEAPKLAICGFNVYHKNRLIRDTGNNLDGKSAGEIRQENLQLFMRYIYKKRKIRISISYLCGDLNQILFFNRCEEYIKKENETEQTVKSLEKELEEFKSKCAHLALLVDAKKKEMQQA,soluble
2,MVLLVSQLYGCGDPLPEQRKLSHFDRIKAAGELRVLVRDKRFASSRPASGTAGFERDLLHGFASHLGVRLRFIPANARPVTERLLRGEADFAAMPSRSVAGEVLPTGGPPPFAGVTPVGGWVGALAGGLKGMARNSAQKFNPRMAFAEYSPRRVHTLKWAFPENAGVRGPRALAWMFAEPEGDHLAMMAEHFLRDMCERKGLDPLLDRHFGHNEGADPALDRNLRESYGRQLGKYRRTFVEAAARHGLDWRLLAAVAFQESRWDGHAVSAEGVRGMMMLTGATARELGVDRNNPGQSIHGGARYLKAVWSRLPEEIAEPDRTWFALSAYNLGPGRVETARRLAKKLGRDPNKWAEVKKTLPLVGAGRSGGRFRHPSARGKLTVQYVNRVRHYYDLLVRLEHHHHHH,soluble
3,MRWDIFCHVVDNYGDIGICWRLARQLVTEFDISVRMLVDDLGAMQRICPAIDPRLAVQNIRGVEILHWVEPFADLVPADVVIEAFGCELPPRYIAAMAAASPRFSEPEGKTDRIWINLEYLSAEQWVEGCHGLASPHPSLPLIKYFFFPGFTAATGGLLREAELFTLRDASRTDPAGLWRELGITNPAADEATVSLFCYDSAPISDLLEAWAGSISPVRCLLPEGTASASAASWAGISRLAAGDSIQRGNLTLHVIPFMSQENYDHLLWACDCNFVRGEDSFVRAQWAVRPIVWQIYPQQENVHLIKLEAFLDLYCQELIEPAADAVRAFHRSWNNNEQPDWNCFWKYRDVLQQHAMAWAERLAQIPNLASSLVNFCRNR,not soluble
4,MDKELIKKNIKLMDATIEKMIHVMSSIHKLQLSVKELEDSNELTVSYVKRECTKLEERVKELRPSISRCVFMYREYVEEFETKLRDRIVTEKFFRIKRFYGKEVLAFKEFQEKYQNYIPKDIIDIKKQVRQKLEEVGYEIDGAFEGDFTSWVGVYARPKDKPTYLDPANAEEVVLQEKYSVNGFKQDFSEWFEFEIKDNVVYGILEHHHHHH,soluble
5,MALELSRLPELLSRIDGYKGQPVTRLAVMLNLLVFIRSSELRYARWSEIDIDNSMWTIPAEREPLPGVKFSHRGSKMRTPHLVPLSKQVVAILAELQTWAGENGLIFTGAHDPRKPISENTVNKALRVMGYDTTQEVCGHGFRAMACSALIESGLWSRDAVERQMSHQERNGVRAAYIHKAEHLEERRLMLQWWADFLDANREKGISPFEYAKINNPLKLEHHHHHH,soluble
6,GPGSMTSEEAVECTDALELVRCPSSNARVVPNRFDEEYIRGRLQEAEKIFEKAKTDVSRGLSKCEDWLGACEAFNEAGGLFASCGHPAEAARAFFHASIITRAFKDEEETTTALSLAVENMQLVEPLLAVNLMQKISETLKKGGFFFQAARCKRDSALLLEDRLGEPERAIELYREAIELYGNRSFMSSFSRGCMERITTLTVELKKYTEASKLFVEETAYAPRGRPKTRQFFLSLLCMLAEGFGDNDRYFDSLYYARKRFHALQEEERDFQHGKENRLVRKIIEANDNGSLTAFDTAVYEYRSSSTYVPDAVFENLIERCRKNLYEHLEQYI,soluble
7,DLKDPIKISIPRYVLCGQGKDAHFEFEVKITVLDETWTVFRRYSRFREMHKTLKLKYAELAALEFPPKKLFGNKDERVIAERRSHLEKYLRDFFSVMLQSATSPLHINKVGLTLSKHTICEFSPFFKKGVFDYS,soluble
8,MGHHHHHHSHMTITSGSSLPDGCEGRGLSVHTDMASVTKAMAAPESGLEVRDRMWLKITIPNAFLGSDVVDWLYHHVEGFPERREARKYASGLLKAGLIRHTVNKITFSEQCYYVFGDLSGGC,soluble
9,MGSDKIHHHHHHMSQQQPPAPVEGYQDMVHAAESQFDREQFKQLLMDMVNIPSPTGEEAELARYMADHMTANGLQGQTQYLDDQQANAIGKLPSRSKQGPELLLYASFDTHLGGSDEEERWAGQPLPSMLRPQARLEGDEISGLGAENPKAYAACVTTAATCIAKAGLELPGELTVGLGAGGMTALSRPGFSRRNIGHGAGVMFMLQRGYRPDYCVMCKPVYAVAWEEVGICNFTIRVKGAMGYVGVRHMMPQDQNPFPQVAKVIEALEAWFPTYTARHTSGLVAPQGGISAIEGGWPHKPIITTADVVLHVDIRPSPRTDPVQVKRELQAMLTELSQQHPDVVTELEATLAIPGATTSPDNWIIQSMIRAWEDVEQTPHEPFLNMSGYTDLSVIRQWGVPAARLGVPFRHQEPDPEDSLPMNRVHLDDCYRLIQVLIRSAIDTCSRPIEITQQYQ,not soluble
10,MSLTYLIKVLELFSGVGSFSISLNTLGIEHEIVGFSETRKTATQLFCKLHNKKESENLGDVRNVSAKDLDVDLLVFGSPCQSFTRAGKQGGGLKGSDTRSALMWEAVRIMEECKPKWIVWENVPDAISRKNMPNFQNYMDELDSLNYNTYYKVLNAHELGSAQKRKRLFSISIRKDIDNGKFEFLDLTREPKHLETYLENNDEGHHHHHH,soluble
11,MDSQAQVLILLLLWVSGTCGDIVMSQSPSSLAVSAGEKVTMSCKSSQSLLNSRTRKNYLAWYQQKPGQSPKLLIYWASTRESGVPDRFTGSGSGTDFTLTISSVQAEDLAVYYCKQSYNLYTFGGGTKLEIKRADAAPTVSIFPPSSEQLTSGGASVVCFLNNFYPKDINVKWKIDGSERQNGVLNSWTDQDSKDSTYSMSSTLTLTKDEYERHNSYTCEATHKTSTSPIVKSFNRNEC,soluble
12,MSLYYICPYFLDKNGHRVQKTMVGKVALDEQKLTPQKFSITYPLIINLQDEKVKTKVNEDIVNQVSELFKNQVLLTEKIDLSEVFGAYEIGVNRNYILSILFSIYTYMNRAAHGLTVYSSITVNTRTGKVYSFSDLFNPKMNYLGELTTIVKKYIKDNNIQLIEDYKGVTNDQEFYLTNDKLVLYYQVYAYTPYYYGLFRIPIPYTEIKNLLGPMSPINNLIEGHHHHHH,not soluble
13,MTPFKELQKFIHWKERFLRDYEKIEKGELEKIREEVKEMLGEEPDERLLKALRSMYVGGMEHRVEDEEIRYWTNWGGVKTYETFNRFPLLSDIELAFVFWALGKLFVPLLMHETGVKSEPFKKLSREEQEEAVLDELDTLWETQLTLILQALQFLDLKSISSEKPSSEG,not soluble
14,MSGNPGSSLSALRPTPPERGSFPLDHDGECTKYMQEYLKCMQLVQNENAMNCRLLAKDYLRCRMDHQLMDYDEWSHLGLPEDAPGNNGKTIKDATDNK,not soluble
15,MSLGDSEIYVSLDIGTASVKVIIAEMADDRLNIIGVGNVESSGIKKGIIIDIHKTVESIKKAIEQAERMVGVEISQVIVGVVSSQVHLEACRGIVAVGSENREITDEDVWNVMDAAQVVPLSPEREIINTIPDQFVVDGLTGITDPRGMIGVRLEMEGTLITGSKTILHNTLRCVERAGLEISDIALQPLAEASISLSEDDKEFGTALVNVGAGTTTVSVFEQGRLTYTGVIPVGGDNITKDLSLGLNTSTANADRVKLDHGYAFYDDASPDEVFAIDVIGSDQKQHFTQVEVADIIEARMEEIFQLVVEELTRVGKTHLPGGYVLTGGSMAIPGAIDLAGKTLAAHVRLAIPDYIGVREPSFTTAVGLIKYAYQMVELEGRDVSSEGHHHHHH,soluble
16,RTHIIGIDQTLVDIEAKVDDAFIEKYGLSKGHSLVIDNDKAEMLYNELKDNNMISNEFAGGTIGNTLHNYSVLADDKSTLLGVMSEDIHIGSYSYRYLCNTSSRMDLNYLQPVPGAIGRCFALISEDGERTFAISEGDMNQLRAESIPEKIFKNASALVLTAYLVRCKEGDPMPEATMKAIEYAKKYDVPVVLTMGTKFVVQDDPQYWRDFLNDHVTVVAMNEEEGEALTGATDPLEAANKTLEWVDLVLCTAGPVGLYMAGYTEDSAKRETSLPLLPGTIAEFNQFEFSRPAVKDSCENPIKVFSHISPYMGGPEKIKNTNGAGDGALSALLHDMAANHYHRNNVPNSSKHQHSFLTYSSFSQVCKYSNRVSFEVLAQHSPRLSRGLPEREDSLEEAYWE,soluble
17,MGSDKIHHHHHHMSQPLLSLPIDVLNIISKAMPTTLFQQLATQCTEVSFLNTGISNVNIKLSCEDGDKVLRVNQPHSNWCDRSLEVECWQAAIVANIAPVLIWVSDDKQVYLSEFIHQPETDWSIFASMRSHLSLGQSTNQSISAVDAVPLLSALFCKLSTLPVPNKSITVTEQWQQYAYQLDSLTESQIDPQWHDAWQQLLRLNGLVRHWLSQLEACVLLPTFCHRDLTPHNLLLSGRAPHQLFCIDYEYAVASHPLFDLASVVASHKLSTIQVNQLIDNVIMQYCQAASLTDVAAAKAALPAAINCFWLFSAMWALLMAAKEPQKVTQYLQYFTYYLTLITC,not soluble
18,MSLRPKMADIARMAGVDISTVSRALAGSPRVTKETRALIDQIVRDTGYVLNEAARNLRDGRANQVLVIVSDIAAPFYSDVVQGIVETLAERGINVLLGVTLRQAKREAKLGKQLLTGVVDGIITVTGSVPKPILNMQGFDRKVVAISRPVPHEGVTCVTIDNYAAAKEVMAHLYAMGHRRIVHIGGPNHSETYRDRSAAYVDFMRDHGLVELTNVRSTDSFNDDAESGFEIMKSMLNDGSRPTAVFCATDELAISAMAAARQANRNIPGDVSFFGFDDLKLAGLMHPPLSTVSVPRFEMGRRGAEELFRQIYKGEMPSTKIVLEHRLVLRDSVAKEGHHHHHH,not soluble
19,MFYKFLLFDLDHTLLDFDAAEDVALTQLLKEEGVADIQAYKDYYVPMNKALWKDLELKKISKQELVNTRFSRLFAHFGQEKDGSFLAQRYQFYLAQQGQTLSGAHDLLDSLIERDYNLYAATNGITAIQTGRLAQSGLAPYFNQVFISEQLQTQKPDALFYEKIGQQIAGFSKEKTLMIGDSLTADIQGGNNAGIDTIWYNPHHLENHTQAQPTYEVYSYQDLLDCLDKNILEKITF,not soluble
20,MSRISSMAYKWKQPPPPINDDSRHRSQSNSRLFDRIYGQMHRGNKAFEHTTSYDESISGFMRRRFAGNGERALPLRYGTNPHQKDDAELYIVEDEMPIKVLNGSPGYINILDGLNGWQLVKELSDATKMPAAASFKHVSPAGAAVGLPLNETEAACCMVSDLPIDTKKPSLAAAYARARGADRMSSFGDFIALSEKCDELTAKIINREVSDGVVAPDFDPAALSLLAKKKNGNYCVLKINPNYLPSETEERTVFGLRLRQKRNNAVINAETFNNVVGSANELNKQAIDDLIVATIALKYAQSNSVCFAHRGQVIGMGAGQQSRIHCTRLAGDKAMNWWLRQHPTVLSLPWKNAIKRSEKSNAIDVLCSGVLGSEVCNFKFNRPLSYFSLVTNL,not soluble
21,MESNTWNTIHDNKKENAALNDVQVEVNYAIKLDDQWTVRPGMLTHFSSNGTRYGPYVKLSWDATKDLNFGIRYRYDWKAYRQQDLSGDMSRDNVHRWDGYVTYHINSDFTFAWQTTLYSKQNDYRYANHKKWATENAFVLQYHMTPDITPYIEYDYLDRQGVYNGRDNLSENSYRIGVSFKL,not soluble
